{"source": "patent US20070009989A1", "about": "“Synthetic heparanase molecules and uses thereof” (priority 2003, published 2007)", "molecules": {"B1": {"name": "tobacco etch virus (TEV) protease (protein)", "chain": "GESLFKGPRDYNPISSTICHLTNESDGHTTSLYGIGFGPFIITNKHLFRRNNGTLLVQSLHGVFKVKNTTTLQQHLIDGRDMIIIRMPKDFPPFPQKLKFREPQREERICLVTTNFQTKSMSSMVSDTSCTFPSSDGIFWKHWIQTKDGQCGSPLVSTRDGFIVGIHSASNFTNTNNYFTSVPKNFMELLTNQEAQQWVSGWRLNADSVLWGGHKVFMSKPEEPFQPVKEATQLMNELVYSQ"}, "B2": {"name": "50 kDa protein: mature 50 kDa human heparanase fragment, SEQ ID NO:16 (protein)", "chain": "KKFKNSTYSRSSVDVLYTFANCSGLDLIFGLNALLRTADLQWNSSNAQLLLDYCSSKGYNISWELGNEPNSFLKKADIFINGSQLGEDFIQLHKLLRKSTFKNAKLYGPDVGQPRRKTAKMLKSFLKAGGEVIDSVTWHHYYLNGRTATREDFLNPDVLDIFISSVQKVFQVVESTRPGKKVWLGETSSAYGGGAPLLSDTFAAGFMWLDKLGLSARMGIEVVMRQVFFGAGNYHLVDENFDPLPDYWLSLLFKKLVGTKVLMASVQGSKRRKLRVYLHCTNTDNPRYKEGDLTLYAINLHNVTKYLRLPYPFSNKQVDKYLLRPLGPHGLLSKSVQLNGLTLKMVDDQTLPPLMEKPLRPGSSLGLPAFSYSFFVIRNAKVAACI", "modifications": "Human"}, "B3": {"name": "109/110+157/158: heparanase with TEV cleavage sites between E109/G110 and Q157/K158, SEQ ID NOs:29 and 32 (protein)", "chain": "QDVVDLDFFTQEPLHLVSPSFLSVTIDANLATDPRFLILLGSPKLRTLARGLSPAYLRFGGTKTDFLIFDPKKEGSGSENLYFQGSGSTFEERSYWQSQVNQDICKYGSIPPDVEEKLRLEWPYQEQLLLREHYQSGSGENLYFQGSGSKKFKNSTYSRSSVDVLYTFANCSGLDLIFGLNALLRTADLQWNSSNAQLLLDYCSSKGYNISWELGNEPNSFLKKADIFINGSQLGEDFIQLHKLLRKSTFKNAKLYGPDVGQPRRKTAKMLKSFLKAGGEVIDSVTWHHYYLNGRTATREDFLNPDVLDIFISSVQKVFQVVESTRPGKKVWLGETSSAYGGGAPLLSDTFAAGFMWLDKLGLSARMGIEVVMRQVFFGAGNYHLVDENFDPLPDYWLSLLFKKLVGTKVLMASVQGSKRRKLRVYLHCTNTDNPRYKEGDLTLYAINLHNVTKYLRLPYPFSNKQVDKYLLRPLGPHGLLSKSVQLNGLTLKMVDDQTLPPLMEKPLRPGSSLGLPAFSYSFFVIRNAKVAACI"}, "B4": {"name": "109/110: heparanase with TEV protease cleavage site between E109 and G110, protein SEQ ID NO:31 (protein)", "chain": "MLLRSKPALPPPLMLLLLGPLGPLSPGALPRPAQAQDVVDLDFFTQEPLHLVSPSFLSVTIDANLATDPRFLILLGSPKLRTLARGLSPAYLRFGGTKTDFLIFDPKKEGSGSENLYFQGSGSTFEERSYWQSQVNQDICKYGSIPPDVEEKLRLEWPYQEQLLLREHYQKKFKNSTYSRSSVDVLYTFANCSGLDLIFGLNALLRTADLQWNSSNAQLLLDYCSSKGYNISWELGNEPNSFLKKADIFINGSQLGEDFIQLHKLLRKSTFKNAKLYGPDVGQPRRKTAKMLKSFLKAGGEVIDSVTWHHYYLNGRTATREDFLNPDVLDIFISSVQKVFQVVESTRPGKKVWLGETSSAYGGGAPLLSDTFAAGFMWLDKLGLSARMGIEVVMRQVFFGAGNYHLVDENFDPLPDYWLSLLFKKLVGTKVLMASVQGSKRRKLRVYLHCTNTDNPRYKEGDLTLYAINLHNVTKYLRLPYPFSNKQVDKYLLRPLGPHGLLSKSVQLNGLTLKMVDDQTLPPLMEKPLRPGSSLGLPAFSYSFFVIRNAKVAACI", "modifications": "hep TEV110"}}, "key": {"[1]": {"molecular_target": "T1, hepHyal single chain construct produced in insect cells (Homo sapiens, UniProt Q9Y251, DEL119-135/E137F/E138K/K139D/K307R/L140K/L142P/R141T/V136A)", "T1 construct": "made in house; host or cells: Sf9 insect cells (baculovirus, Bac to Bac)", "T1 sequence (Q9Y251 other isoform, or with tags, fused parts or gaps DEL119-135/V136A/E137F/E138K/K139D/L140K/R141T/L142P/K307R)": "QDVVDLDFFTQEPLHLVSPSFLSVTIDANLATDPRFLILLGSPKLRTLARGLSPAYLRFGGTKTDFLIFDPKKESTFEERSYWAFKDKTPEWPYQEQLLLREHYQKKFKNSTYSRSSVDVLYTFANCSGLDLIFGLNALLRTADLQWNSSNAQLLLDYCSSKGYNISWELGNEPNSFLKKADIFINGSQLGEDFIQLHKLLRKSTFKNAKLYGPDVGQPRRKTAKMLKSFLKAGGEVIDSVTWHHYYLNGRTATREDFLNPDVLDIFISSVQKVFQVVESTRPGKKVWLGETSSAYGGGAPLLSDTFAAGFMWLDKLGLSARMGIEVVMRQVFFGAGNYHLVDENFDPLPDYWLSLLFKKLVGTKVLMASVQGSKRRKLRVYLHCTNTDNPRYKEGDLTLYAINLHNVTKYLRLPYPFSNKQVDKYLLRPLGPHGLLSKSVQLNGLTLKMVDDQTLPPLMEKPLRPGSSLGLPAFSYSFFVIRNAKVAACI", "assay": "Heparin titration in the fluorimetric heparanase activity assay, hepHyal", "type": "biochemical", "description": "(§1) FIG. 7: Ionic strength dependence (panel A), inhibition by heparin (panel B) and pH-dependence (panel C) of wild-type heparanase produced in COS7 cells (●), hepGS3 (□) and hepHyal (▴) single chain constructs produced in insect cells using the fluorimetric activity assay.\n(§2) This assay is based on the degradation of FITC-HS monitored by HPLC size exclusion chromatography. 8 μl of purified heparanase was incubated with 5 μL of FITC-HS in a 50 μl of 50 mM MES pH 6, 10% glycerol (heparanase activity buffer, HAB). The reaction mixture was incubated at room temperature for a defined period and the reaction was stopped by the addition of 50 μg of heparin. The mixture was then filtered using Ultrafree-MC centrifugal filter Devices (Millipore). 20 μl were injected on a Superdex 75™ (Pharmacia Biotech) column equilibrated in buffer 50 mM Hepes pH 7.5 150 mM Na2SO4 and connected to a Merck-Hitachi HPLC system. Fluorescent heparan sulfate degradation products were detected by an L-7485 fluorescence detector. Heparanase activity was assessed by monitoring the increase in lower molecular weight heparan sulfate species compared with the intact FITC-HS and quantified by peak area integration."}, "[2]": {"molecular_target": "T2, hepGS3 single chain construct produced in insect cells (Homo sapiens, UniProt Q9Y251, DEL111-157/INS109GSGSG/K307R)", "T2 construct": "made in house; host or cells: Sf9 insect cells (baculovirus, Bac to Bac)", "T2 sequence (Q9Y251 with tags, fused parts or gaps INS109GSGSG/DEL111-157/K307R)": "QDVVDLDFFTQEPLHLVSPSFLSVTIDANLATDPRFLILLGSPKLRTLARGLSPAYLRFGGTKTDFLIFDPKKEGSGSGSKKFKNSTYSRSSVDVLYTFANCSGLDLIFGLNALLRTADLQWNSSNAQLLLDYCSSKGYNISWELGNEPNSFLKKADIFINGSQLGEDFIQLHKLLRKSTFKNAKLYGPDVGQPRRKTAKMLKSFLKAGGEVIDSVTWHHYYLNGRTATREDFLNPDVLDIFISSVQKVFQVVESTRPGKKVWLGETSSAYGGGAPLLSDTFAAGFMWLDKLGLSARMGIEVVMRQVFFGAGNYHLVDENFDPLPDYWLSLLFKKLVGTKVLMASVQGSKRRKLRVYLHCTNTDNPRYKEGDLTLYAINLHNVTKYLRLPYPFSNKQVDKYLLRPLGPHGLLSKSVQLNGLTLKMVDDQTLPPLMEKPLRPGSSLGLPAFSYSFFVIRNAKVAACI", "assay": "Heparin titration in the fluorimetric heparanase activity assay, hepGS3", "type": "biochemical", "description": "as §1, §2"}, "[3]": {"molecular_target": "T3, wild-type heparanase produced in COS7 cells (hepwt) (Homo sapiens, UniProt Q9Y251)", "T3 construct": "made in house; host or cells: COS7 cells, transient transfection with pcDNA3; partially purified on Heparin Sepharose", "T3 sequence (Q9Y251 36-109 limits assumed)": "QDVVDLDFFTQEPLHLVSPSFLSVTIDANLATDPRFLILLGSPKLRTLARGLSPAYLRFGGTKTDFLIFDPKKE", "T3 sequence (Q9Y251 158-543 limits assumed)": "B2 chain with R150K", "assay": "Heparin titration in the fluorimetric heparanase activity assay, wild-type enzyme", "type": "biochemical", "description": "as §1, §2"}, "[4]": {"molecular_target": "T4, hepTEV110 (human heparanase with a TEV cleavage site E109-GSGSENLYFQ-GSG-G110 inserted between E109 and G110)", "T4 chain": "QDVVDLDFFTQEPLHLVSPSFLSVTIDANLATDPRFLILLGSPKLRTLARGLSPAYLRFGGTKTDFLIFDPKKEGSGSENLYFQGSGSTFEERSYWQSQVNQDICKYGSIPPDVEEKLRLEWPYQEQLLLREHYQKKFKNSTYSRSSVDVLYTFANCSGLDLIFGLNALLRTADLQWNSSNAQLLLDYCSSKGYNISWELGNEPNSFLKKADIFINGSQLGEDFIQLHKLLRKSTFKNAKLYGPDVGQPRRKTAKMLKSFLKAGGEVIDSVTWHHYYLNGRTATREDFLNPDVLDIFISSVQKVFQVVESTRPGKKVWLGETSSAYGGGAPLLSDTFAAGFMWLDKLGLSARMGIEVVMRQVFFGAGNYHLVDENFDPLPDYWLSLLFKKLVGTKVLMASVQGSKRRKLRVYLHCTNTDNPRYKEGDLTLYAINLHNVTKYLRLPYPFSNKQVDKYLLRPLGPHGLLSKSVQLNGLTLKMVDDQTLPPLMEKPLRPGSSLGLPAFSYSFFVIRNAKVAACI"}, "[5]": {"molecular_target": "T5, hepTEV110/158 (human heparanase with TEV cleavage sites between E109/G110 and Q157/K158)", "T5 chain": "B3 chain"}, "[6]": {"details": "cited from earlier work"}, "[7]": {"assay": "Heparanase activation of TEV cleavage site constructs by digestion with TEV protease", "type": "biochemical", "details": "overnight at room temperature, TEV protease 0.5 μM, 50 mM Mes pH 6.0", "description": "Heparanase activity of these samples was assessed using the fluorimetric method.\nThe constructs having TEV cleavage sites at positions 109/110 and 109/110+157/158 were expressed, purified on a heparin affinity column and digested overnight at room temperature with TEV protease (0.5 μM) in 50 mM Mes pH 6.0, 10% glycerol, 0.5 mM EDTA.\nas §2"}}, "note": "Positions count from the first letter of the chain named.", "data": [{"molecule": "heparin", "values": [{"measurement": "IC50 of heparin, hepHyal", "setting": "[1]", "value": 1.5, "unit": "µg/mL"}, {"measurement": "IC50 of heparin, hepGS3", "setting": "[2]", "value": 1.1, "unit": "µg/mL"}, {"measurement": "IC50 of heparin, hepwt", "setting": "[3]", "value": 0.9, "unit": "µg/mL"}]}, {"molecule": "B1", "values": [{"measurement": "proteolytic processing by TEV protease (overnight digestion, Western blot)", "setting": "[4]", "value": "Complete processing was observed in both cases"}, {"measurement": "proteolytic processing by TEV protease (overnight digestion, Western blot)", "setting": "[5]", "value": "Complete processing was observed in both cases"}]}, {"molecule": "B2", "values": [{"measurement": "activity if expressed as such in mammalian cells", "setting": "[6]; Hulett et al. 1999", "value": "inactive"}, {"measurement": "specific activity relative to the unprocessed 65 kDa precursor", "setting": "[6]; Vlodavsky et al. 1999", "value": "at least 100 fold"}]}, {"molecule": "B3", "values": [{"measurement": "activation of heparanase by TEV protease treatment", "setting": "[7]", "value": "activated"}]}, {"molecule": "B4", "values": [{"measurement": "activation of heparanase by TEV protease treatment", "setting": "[7]", "value": "not sufficient for eliciting activation"}]}]}
